Test results taken from article PMC9289880 (Journal of Medicinal Chemistry, 2022).
Bridges are numbered along the chain shown (N, C = ends).

Target: KRAS^G12D (GDP) (UniProt P01116 1-189, G12D)
Assay: cell-based or functional assay

B1: peptide 2 (KRpep-2) (peptide)
peptide: Ac-RRCPLYISYDPVCRR-NH2
modifications: disulfide 3-13
- KRAS^G12D SOS GNE IC50 (TR-FRET, SOS-catalysed Bodipy-GDP/GTP exchange): 54 nM
